Test results as given in the domain aggregation screens of Martell et al. (2025).

Test: soluble fraction after stress (log2 fold change); higher = more stays soluble; pooled small domains, quantitative proteomics
Settings: stress: 75 degC
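Note: 20 min heating vs room temperature control held 20 min.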

Row | Sequence | soluble fraction (log2)
1 | HMTGMDALIGRRVFVSEEILPGDAGGRVAVDGDSWRAISVGTAKPIPAGTEVRIHGYKSLILEVEPI | -0.788
2 | HMKVSDLIGMLGRVTGELAPTGIVLVGNKTWTAISEDASVIASGEQVQVRSVAGLILTVSHQVD | -2.32
3 | HMNDTSLIIDNLMLKLGNNIKNFSEIYSLLRKNLAEYGEEFIKSKVDYVLKNFNDNIEENLKKLLTE | -0.394
4 | HMPYLVNGFILEVQSDDNNPVGTLKRRYAVAKNKQGVILLEGEKSFSSNDQILINELKFYIQSNDLKA | -2.56
5 | HMLDNHPQSKKIRALWLEMAAAGVVRDSSEQALALWVKRETGISALRWLSNEQASSVIEKLKKWQRRAAG | -1.47
6 | HMEETEVPPVTGYEQSKASEVLTGKGLIPDIITVADEETAAGYVIRTDPASGEKVPSGTTVKVYVSSGP | 0.248
7 | HMLNDMYAVMEIRGQGGELIAKLINQDGSPFYVKKGTTLQSGHVIDEITTTYVRAEKAGAKDYLYF | -0.939
8 | HMPTNVYSIIGKEGIVLESIDNLNSTGKVKVNGELWSAISDSNIEKGETIKVLSVNGVKLKVEKVN | -0.00656
9 | HMTQEHDESVNLGKRLLDQALSRFGTSYRQLKKSEIKRILQSSGASTFKYILHQIGLGNRVPLAIANLIV | -0.0539
10 | HMSDFKDIILKLRNEQGFTQEKLADVLGTSKSTVGMWEMGVRFPSKELYEAIADYFNVDIDYLYGRTDIR | -0.83
11 | HMSDLTEVIVKFSGDIQPIRQDLDAQVEILLKGYAIITLSPNKIGRLYSYPQIESIEIPKNLYI | -2.73
12 | HMDIVENSMPNVVGLELNRAKELMTQLGFTNVRYEPTESSRPENEVVYQSVDKDETLDVSSEIIIQYSSGV | 0.0628
13 | HMRDAKSQLQEALQKSGRLPEYELVSVEGPPHAPVFTYRVRIDGAVVGEGQGASKQAAQQAAAQSALKSG | 0.0311
14 | HMEPFEQLLDRITSQTGKEPEEVVARMNELITERFDGNIRPEAALVIVAKRDNIQFMDLLDQLKQALL | -0.427
15 | HMTTLTPIGKMKGEIDGDFEAFYLAVDKDGQVYLNRDPDYSENRYEKSRGWELVTREQLAVYEKELHFIP | -0.707
16 | HMDILPEGNYKVNYDVIDEVGNIVANKNDIVVTEKSIKPLNTILGIDLYEVIHSQTGKYFTINGDNLTN | -0.0277
17 | HMNTFKNIFIQEGDLFNLKKNDNQIIFAKEGILINENKKIFRLLNGKIISTNNNRLIGFEFDKIDYNLSN | 0.561
18 | HMDGKPSLIISNGQINYKEMVKLRYSLEDLLFQLRQNSIKSIEEVEYAFLESNGKLSIFPYNFL | -2.53
19 | HMDLLKANNLSQINVDKLTDEEILKYSQQLKQSGLTESQAEQIAIARGMPATEIAKLKQRLISLTNMQ | 0.118
20 | HMENTGFKDKKGNYIFDGDIVKDILGNIMKVEFKHFKWQLIPLNKTAFNMPMVDWLDLETETLNAEIIGN | -2.07
21 | HMRPEKLVLKALRGAHGPLSAEEVAGRIEADGGAGLDVARVEHVLGQLERSGTVAALGGGKYLALR | 0.692
22 | HMSYQADEIKEKLIDILQNQKTGLSGLEISERIGINRITMTKYLQVFAAEGFIKQKNIGNVIIWFIEDGTE | -1.05
23 | HMAVLGIQPVFHRSTGQTVYKSSVNTAKGRVYLGLFPTLTEALEIKLKYMQEHGHTKGITNLTNKLKEL | -1.05
24 | HMGSLVQTAMQAVTKHIHDNAMRVGDTLPGEGHFAETLGVSRAVMREAFGALAALKLIDVGNGRKPRVGR | -1.33
25 | HMENYQIETFVKFIEESTGEDGVAFEDLFQNFTSRPAVITMFLALLEALRRNSIRIFQKEEFSQILIYPK | -0.0302
26 | HMNIEEAESILKEIKTVLTDKEYEVYTLRAKGFTYQEIASLLNTTTKSVDGALSRIKTKINNIK | -0.674

Row | Sequence | soluble fraction (log2)
27 | HMHPEETVNLILDAAFRLFLEKGYEHTSIQDIIGQLGGLSKGAIYHHFNSKEDILIAVTDRMTA | -2.12
28 | HMEVSVPDFTGMSKSDAQNAAKEAGLTVNFEEDYDNQVPAGQVIRSNPSAGEKVKKNSSVTVTLSKGSN | 0.128
29 | HMDFTHFTLKQDGKFAGSSNLLHQAVIAAARLAAETGKPVTVMAHVRGGGTRKAVFNPDGTNDKIWN | -1.05
30 | HMELEIPGELIEAVRRLRDERQRMRLAGELAARQIQMHPERYTEASIDPVQTWDELRARILALA | -0.485
31 | HMAITYETKVISGVNLRSAPSTSASVYQLIPKGENIHVVQKVNDYWLKVQTKDGKTGYISASSKYTNYIG | -2.7
32 | HMDYINALTTAGITDAKVIVTAPFDVSGTAALTGIYKAYEDITGSSLNEIAKAVGVEELITTGNLA | 0.23
33 | HMKWIEILKSKDGNYALLQDEKDTQFVVASGYNPDAAEDQKWGHGSYFIYWNNKENKAEMLMNAIDLFRYR | -2.21
34 | HMGTWKKIGTMTATVNDLYVRETPNGYIMGFINKGTVVEVDGKTTGKWTHAKVEGIGVGWIWTGYLDK | -3.17
35 | HMGKPTPASQVATRWLAGDLPETLPVAGPAPSFETLARSVSTDFHPRAVLQELLRLGVAEEADGRVRLLK | -0.212
36 | HMTRQNTAVQQSDMAHHKASELTEGMSIVHSHFGRGTIISIETADDPRVTVDFSSEGRKTMLLRFAKFAIE | -0.941
37 | HMHAEEIAREAKEALERGEEFHFAGITVRSEEALEFLEEWLRKFF | -1.02
38 | HMQISDNTILEDAVSRIIDENPKSVSDYFQGKEAVVGFFIGQIMRETKGTANPKIAREIVISHLEAI | -0.576
39 | HMIDHLPPQRAAVLAFLQRELVAGRSPSLAEIALAFGFASRNAAQKHVQALVADGLLEQATGRSRGLRLPG | -2.17
40 | HMPSQLPLAFARRHGVLLRGFSNGLAQLTVRPEVSTLSLAETRRHLGVPLALEKVTTERFDQLLREAYEA | -0.9
41 | HMRRISLEDWQLIESLIRRDWSPEQISLWLKKYKKIRVSHEWIYQYILKDKSKAGDLHTHLRSR | 0.00689
42 | HMSSSYVYGGNGEIVILSDVSKHLNVYNLNGQKVTDVNLTAGELQRISIATGIYVVGGKKIVV | -3.52
43 | HMYELREGDVVSVRILSQTGQNSYIASFAGGRFSVTSERAFAPGTVFSASVSLKDGTLVLSPL | -3.6
44 | HMFAQDKKFITYKVKEGETVQSISKALSITPYDLLKLNPDIKDNVSQDDLLIIPNKQYDPLGDI | 0.378
45 | HMILVLKPGAPEDLKNELIHDIEKMGLRVHVSVGEGTTIIGLIGDTSKISKYTFSSYEIVSNVLRVT | -0.188
46 | HMQQVIQSGQKVQLMATDGSFQVSAEGVALKNGSVGEVIGVRMPSGRVISGVVSASGAVEVR | 0.125
47 | HMTRVDKLQTWLSLPREQRDWDEGALMLLQLTGNKIMYRNLSVNPEGKANFIEGKLQQYLEFRLA | -1.25
48 | HMTEEEEFEKGFEILVNLSHFNRFSVYKEDEYVIVRIADYDFNEYFKVKKSDVGRIAEFLNENIT | -2.61
49 | HMQTTVHLSPEEMVIMNALKQESPIDLPILRAQVEMSNKLWDTSMKNLSKLGQLKVEKIGEQVSVSLI | -0.582
50 | HMQVEYTRGELIQDLEGGKIVYAGISPSRETPTGEVNFILDSGLTRTLYVTDVSEIEQLLISYDIDPEVKK | -0.0196
51 | HMNENDENLRQQAIDASKEVRRWGEPVTLPPMNAHDRRIIHITLEGESDLQTESTGEGNFKSVVISLK | -0.171
52 | HMSDAGMNQIGDMFRAPDLMAKLAMNPATREYVSQPDFLAMMEEVKRNPSALNNHLRDPRMMNVLSVAM | -0.271

Row | Sequence | soluble fraction (log2)
53 | HMRKMELTEAAEKLIEEPDVVSAYRNMQQIFQQWREIGPVPREQRDEVWSHFKDLMTQVNRRHQAHFEN | 0.113
54 | HMGKIINMSKVKQVLRLHTQGVSNRRIALDLGLYKGTVNSYIRKIKDHGYDIAEVLKLDDPVLESKLFA | -0.335
55 | HMIYAEDFVGRQGTANTILRPSGRIEIEGEVYDAYTRGEYVEAGERVVVISQEGSTLKVRVV | -0.611
56 | HMQLPIGDVKLSVEHLSSGTALQDISFEVHRGEIFGFLGLVGAGRSETAETIFGLREKTDGKISIDGTVL | -0.0579
57 | HMKDITMPNVYGLTLEMAEQTLKQSELSIFKAMKINSDTVEEGKVIYTDPKANSIVSGDQEITIYVSDGP | 0.411
58 | HMDHAHWEEHEVKLLLTLAIQEKEKFNWNQFGLTREGWRNIYPHFPQYSRKQINNKFDFLKQKYRAWKDS | -1.8
59 | HMQLYSLEVLSKKKVDLIENNKNLINLYFNKENGEYSYRLIFKNRKELYQVKDTLDNSSDVVSIKLDL | -2.27
60 | HMPFSLHGVNEGSRNDNAARIAGYLISKNLNLDFVRIFLHNWNRDNKPPLPQQEIDSVVDNVKKTHDRKN | -2.09
61 | HMEVPMELPRQLRANRERLGLSQEDVAHAIYVSRQTMSSWERGKTYPDVQSLMLLSHLFGISIDELVKGDV | -1.57
62 | HMGPTLSPAEKRVFEVIPYDAILQDMVIRAAELPPGEVLAALTTLELKGLIKRLPGNLVMRRAR | -0.294
63 | HMDLGLTDDQRLVYGLLSPTVPRSSGELLGMVDFGRSKLSRILKELIELGQVFTVGVGRGLKYKRG | -0.482
64 | HMKFNEKQNEVRIAIMNFIIDNKRPFHMKQDGYDALEGITLSGRHEFQDILDVLHSRDGFSADEEGNINF | -1.09
65 | HMNVPATAEAYEALLADAESVGKSLWGHEAKRFAAEQALLSAGLREVIQVDPDKARELALRLRGLLDEYRG | 0.19
66 | HMDESLIEEAKAMILQMKIEGSVRVRSNGLLEFRNPLFGSVYGRSVEELQEKLNKKVREQKSRI | -0.443
67 | HMSPRAIYVTTSDLNMRMQPSPNAYKRGVAPRGTELLVVEWGDDWSKVIFEGDTAYAASRYLSYVKDEP | -1.74
68 | HMKKILLGDVNLDGKVDVNDVTLLQRYIAGETEVITSKDALTATNFNKDGNIDVLDVTDIQTFIANSE | -0.293
69 | HMFDLSQRQEQIIEIVRKHGPITGEKIADLLYVTRAALRPDLAILTMSGYLEAKPRVGYTYK | -1.64
70 | HMKDKSEKTKKLIFEAAFKIIREEGFSELSANKIAQVASVSKGVIFHHFSQMDDLYLFMLDTL | 0.23
71 | HMSQIILSARSGHAALRHRLGELGYTFADKEFDDIYERFLEVADQKKEVYDEDLESIVQERQRD | 0.00498
72 | HMTLGPKQMGEAIIKNLKEKTGKSLEEWSQRILIHELTDKKEIIDFLKNDNGLGHFQALKIFEHLNGK | -0.281
73 | HMVEMSNMELVREQYFQNLIYNVGDWVKDSKTEITGEVVKRGTNYLTIVQEDFTLHKVWLEDAESME | -0.511
74 | HMYLPLREVVFNALRTAIIHGEFKPGERLMEMHLAKSLGVSRTPVREAMRMLELEGLVVMIPKKGAEVAR | -2.93
75 | HMNETVTNQTVLDLLKEGFTSEEIIGAIENSSTRTITYDINFMRQLKAAGADVTLTTYLQKIAKKDM | -0.136
76 | HMGKAVTLEEARAIIQAKVPGASPDMIQIWEEHGDGRGRYEGELSYNNMKYEFEMDPKTGIIFDWNA | -0.0538
77 | HMDYADISYKIFMNHIKNGQVERVELSGDPRIMGKLKDGTYFVTDNPRTENFKEFLLLNNVQVIETN | 0.738
